Laboratory results as given in patent US20210047428A1.
pKd: −log10 of the molar value.

Columns and labels:
[1] = target: duck egg lysozyme (DEL), soluble recombinant (duck) (UniProt P00705); test: BLI; against WT HyHEL10 on DEL
[2] = target: HEL^3X (hen egg lysozyme R21Q, R73E, D101R), soluble recombinant (hen) (UniProt P00698); test: BLI; against WT HyHEL10 on HEL^3X
[3] = target: duck egg lysozyme (DEL), soluble recombinant (duck) (UniProt P00705); test: BLI
[4] = target: HEL^3X (hen egg lysozyme R21Q, R73E, D101R), soluble recombinant (hen) (UniProt P00698); test: BLI
[5] = target: duck egg lysozyme (DEL), soluble recombinant (duck) (UniProt P00705); test: BLI (BLItz), biotinylated Fab on streptavidin biosensor, soluble monomeric DEL, global fit
[6] = target: duck egg lysozyme (DEL), soluble recombinant (duck) (UniProt P00705); test: BLI, Fab on streptavidin sensor
[7] = target: HEL^3X (hen egg lysozyme R21Q, R73E, D101R), soluble recombinant (hen) (UniProt P00698); test: BLI, Fab on streptavidin sensor
[8] = target: HEL^3X (hen egg lysozyme R21Q, R73E, D101R), soluble recombinant (hen) (UniProt P00698); test: BLI, highest concentration of HEL^3X tested
[9] = target: duck egg lysozyme (DEL), soluble recombinant (duck) (UniProt P00705); test: BLI (BLItz), biotinylated Fab on streptavidin biosensor, soluble monomeric DEL 0.025-0.25 µM, global fit
[10] = target: duck egg lysozyme (DEL), soluble recombinant (duck) (UniProt P00705); test: BLI (BLItz), biotinylated Fab on streptavidin biosensor, soluble monomeric DEL 0.03-0.25 µM, global fit
[11] = target: HEL^3X (hen egg lysozyme R21Q, R73E, D101R), soluble recombinant (hen) (UniProt P00698); test: BLI (BLItz), biotinylated Fab on streptavidin biosensor, soluble monomeric HEL3X, global fit
[12] = target: HEL R21Q R73E L75A D101R (self with foreign 75) (hen) (UniProt P00698); test: BLI; against I29F Fab on DEL
[13] = target: HEL R21Q G71R R73K L75A N77G D101R (self with foreign 71, 73, 75, 77) (hen) (UniProt P00698); test: BLI; against I29F Fab on DEL
[14] = target: HEL R21Q R73K L75A D101R (self with foreign 73, 75) (hen) (UniProt P00698); test: BLI; against I29F Fab on DEL
[15] = target: HEL R21Q R73K D101R (self with foreign 73) (hen) (UniProt P00698); test: BLI; against I29F Fab on DEL
[16] = target: duck egg lysozyme (DEL), soluble recombinant (duck) (UniProt P00705); test: BLI; against I29F Fab on DEL
[17] = target: HEL^3X (hen egg lysozyme R21Q, R73E, D101R), soluble recombinant (hen) (UniProt P00698); test: BLI; against I29F Fab on DEL
[18] = target: HEL R21Q R73E L75A D101R (self with foreign 75) (hen) (UniProt P00698); test: BLI, Fab on streptavidin sensor
[19] = target: HEL R21Q G71R R73K L75A N77G D101R (self with foreign 71, 73, 75, 77) (hen) (UniProt P00698); test: BLI, Fab on streptavidin sensor
[20] = target: HEL R21Q R73K L75A D101R (self with foreign 73, 75) (hen) (UniProt P00698); test: BLI, Fab on streptavidin sensor
[21] = target: HEL R21Q R73K D101R (self with foreign 73) (hen) (UniProt P00698); test: BLI, Fab on streptavidin sensor
[22] = target: duck egg lysozyme (DEL), soluble recombinant (duck) (UniProt P00705); test: BLI; affinity for DEL against affinity for HEL^3X
[23] = target: HEL^R21Q,R73E,C76S,C94S (HEL^2X-flex) (hen) (UniProt P00698); test: BLI (Example 10)
[24] = target: duck egg lysozyme (DEL), soluble recombinant (duck) (UniProt P00705); test: BLI (BLItz), biotinylated Fab on streptavidin biosensor, soluble monomeric DEL 0.03-0.5 µM, global fit

Row | Substance | Fold change [1] | ΔΔG apparent [1] | Fold change [2] | ΔΔG apparent [2] | Ka [5] | pKd [5] | pKd [6] | pKd [7] | further results
1 | HyHEL10 Fab S52R | – | – | – | – | – | – | – | – | fold lower affinity against unmutated HyHEL10 [8]: > 100 fold
2 | HyHEL10 Fab S52R/Y53F | – | – | – | – | – | – | – | – | fold lower affinity against unmutated HyHEL10 [8]: > 100 fold
3 | HyHEL10 Fab S52T | 1.2 fold | -0.418 kJ/mol | – | – | 3e+07 M⁻¹ | 7.47 | 7.48 | – | –
4 | HyHEL10 Fab I29F | 2.6 fold | -2.51 kJ/mol | -10.5 fold | 5.86 kJ/mol | – | – | 7.82 | 6.06 | Ka [10]: 6.4e+07 M⁻¹; pKd [10]: 7.80; Ka [11]: 1.1e+06 M⁻¹; pKd [11]: 6.06; Fold change [12]: -54.5 fold; Fold change [13]: -2 fold; Fold change [14]: -1.8 fold; Fold change [15]: -22.3 fold; Fold change [16]: 0 fold; Fold change [17]: -56.1 fold; pKd [18]: 6.07; pKd [19]: 7.49; pKd [20]: 7.55; pKd [21]: 6.46
5 | HyHEL10 Fab Y58F | – | -3.35 kJ/mol | – | – | 9.4e+07 M⁻¹ | 7.96 | 7.96 | – | –
6 | HyHEL10 Fab, wild-type | 0 fold | 0 kJ/mol | 0 fold | 0 kJ/mol | – | – | 7.40 | 7.08 | Ka [23]: 1.6e+07 M⁻¹; Ka [24]: 2.5e+07 M⁻¹; pKd [24]: 7.40; Ka [11]: 1.2e+07 M⁻¹; pKd [11]: 7.08

The next lines start with results.

Row | Fold change [1] | ΔΔG apparent [1] | Fold change [2] | ΔΔG apparent [2] | Ka [5] | pKd [5] | pKd [6] | pKd [7] | Substance | further results
7 | 80 fold | -10.9 kJ/mol | 3.5 fold | -2.93 kJ/mol | 1.99e+09 M⁻¹ | 9.30 | 9.30 | 7.62 | HyHEL10 Fab S52T/Y53F/Y58F | fold lower affinity than the I29F-S52T-Y53F trio [3]: 3 fold; fold increase of affinity against unmutated HyHEL10 [4]: 4 fold
8 | – | -4.6 kJ/mol | – | – | 1.7e+08 M⁻¹ | 8.24 | 8.22 | – | HyHEL10 Fab I29F/S52T | –
9 | 23.8 fold | -7.95 kJ/mol | – | – | – | – | 8.70 | – | HyHEL10 Fab I29F/S52T/Y58F | –
10 | 1.1 fold | -5.86 kJ/mol | -1.8 fold | 1.26 kJ/mol | 2.8e+08 M⁻¹ | 8.44 | 8.44 | 6.82 | HyHEL10 Fab S52T/Y53F | –
11 | 4.8 fold | -3.77 kJ/mol | – | – | – | – | 8.10 | – | HyHEL10 Fab Y53F | Ka [9]: 1.2e+08 M⁻¹; pKd [9]: 8.08
12 | – | – | – | – | 3.8e+08 M⁻¹ | 8.59 | 8.52 | – | HyHEL10 Fab S52T/Y58F | –
13 | 245 fold | -13.8 kJ/mol | -9.6 fold | 5.44 kJ/mol | 6.1e+09 M⁻¹ | 9.80 | 9.79 | 6.09 | HyHEL10 Fab I29F/S52T/Y53F | fold differential binding to foreign (DEL) over self (HEL^3X) [22]: 5000 fold
14 | – | -9.2 kJ/mol | – | – | 9.7e+08 M⁻¹ | 9.00 | 9.00 | – | HyHEL10 Fab I29F/Y53F | –
